Assay results from patent WO2016038310A1.
Several values for one entry are separate records, joined by “and”; a condition that tells them apart may be missing. Equal values may be shown once.

Tests used:
[1] = biological target: les FSH ovine et humaine (ovine and human FSH); test: ELISA saturation binding, Kd estimated with GraphPad Prism
[2] = biological target: les eCG et hCG (equine and human chorionic gonadotropins); test: as above

B1: scFv A8 (scFv)
scFv: QVQLQQSGGGLVQPGGSRKLSCAASGFTFSDFGTHWIRQAPEKGLEWVAYISSGSSTRYYADTVKGRFTISRDDPKNTLFLQMTSLRSEDTAMYYCARSYDGYHVPSFAYWGQGTLVTVSAGGGGSGGGGSGGGGSDIQMTQTPLSLSVSLGDQASISCRSSQNIVHSNGNTYLEWYLQKPGQSPKLLIYRVSNRFSGIPDRFSGSSSGTDFTLKISRVEAEDLGVYYCFQGSHVPLTFGAGTKLELKHHHHHH
Kd [1]: 3.12 µM and 4.62 µM
Kd [2]: 5.78 µM and 22.2 µM
